Paper PMC4075454

Key:
WDR5 [1] = target: WDR5 (UniProt P61964); assay: biotin-peptide streptavidin pull-down, anti-GST blot; conditions: reference: unmodified H3 peptide; sites T11
WDR5 [2] = target: WDR5 (UniProt P61964); assay: peptide pull-down, silver stain, MALDI-TOF identification; conditions: reference: unmodified H3 peptide; sites T11

histone H3 (synthetic tail peptides) 1-21 (from UniProt P68431) H3T11P peptide
binding against the reference (WDR5 [1]): stronger
binding against the reference (WDR5 [2]): stronger
